Data published in US20060257938A1, “Method of screening for drugs that block ligand binding to a lipid binding protein” (priority 2005, published 2006).

Experiments:
Format in all cases: binding
[1] = Probe fluorescence ratio response to stearic acid relative to ADIFAB2; details: response relative to ADIFAB2
Procedure, shortened: (§1)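 Fluorescently labeled rat intestinal FABP variants were read at two emission wavelengths, near the unbound maximum (about 420 to 480 nm) and the FFA-bound maximum (about 495 to 580 nm). R = Fλ1/Fλ2 after subtracting probe-free intensity; ΔR = R+agent − R0, normalized to ADIFAB2 (rI-FABP-L72A).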

[2] = Probe fluorescence ratio response to linolenic acid relative to ADIFAB2; details: response relative to ADIFAB2
Procedure, shortened: as §1

[3] = Probe fluorescence ratio response to arachidonic acid relative to ADIFAB2; details: arachidonic acid; response relative to ADIFAB2
Procedure, shortened: as §1

[4] = Probe fluorescence ratio response to palmitic acid relative to ADIFAB2; details: response relative to ADIFAB2
Procedure, shortened: as §1

[5] = Probe fluorescence ratio response to palmitoleic acid relative to ADIFAB2; details: response relative to ADIFAB2
Procedure, shortened: as §1

[6] = Probe fluorescence ratio response to linoleic acid relative to ADIFAB2; details: response relative to ADIFAB2
Procedure, shortened: as §1

[7] = Probe fluorescence ratio response to oleic acid relative to ADIFAB2; details: response relative to ADIFAB2
Procedure, shortened: as §1

| Molecule | DR/DR SA [1] | DR/DR LNA [2] | DR/DR AA [3] | DR/DR PA [4] | DR/DR POA [5] | DR/DR LA [6] | DR/DR OA [7] |
| --- | --- | --- | --- | --- | --- | --- | --- |
| 72I 73W 74N (protein, listed as Rattus norvegicus, PEPTIDE (1)...(131) wild-type rat intestinal fatty acid binding protein) AFDGTWKVDRNENYEKFMEKMGINVVKRKLGAHDNLKLTITQEGNKFTVKESSNFRNIDVVFELGVDFAYSIWNGTELTGTWTMEGNKLVGKFKRVDNGKELIAVREISGNELIQTYTYEGVEAKRIFKKE | 0.329 | 1.794 | 0.791 | 2.091 | 3.236 | 1.194 | 0.779 |
| 73T 72A 74F (protein, listed as Rattus norvegicus, PEPTIDE (1)...(131) wild-type rat intestinal fatty acid binding protein) AFDGTWKVDRNENYEKFMEKMGINVVKRKLGAHDNLKLTITQEGNKFTVKESSNFRNIDVVFELGVDFAYSATFGTELTGTWTMEGNKLVGKFKRVDNGKELIAVREISGNELIQTYTYEGVEAKRIFKKE | 0.519 | 1.661 | 0.939 | 1.632 | 2.450 | 1.389 | 1.161 |
| 74S 72A 73F (protein, listed as Rattus norvegicus, PEPTIDE (1)...(131) wild-type rat intestinal fatty acid binding protein) AFDGTWKVDRNENYEKFMEKMGINVVKRKLGAHDNLKLTITQEGNKFTVKESSNFRNIDVVFELGVDFAYSAFSGTELTGTWTMEGNKLVGKFKRVDNGKELIAVREISGNELIQTYTYEGVEAKRIFKKE | 0.337 | 1.433 | 0.893 | 1.158 | 2.413 | 1.035 | 0.630 |
| 55V 73F 72A (protein, listed as Rattus norvegicus, PEPTIDE (1)...(131) wild-type rat intestinal fatty acid binding protein) AFDGTWKVDRNENYEKFMEKMGINVVKRKLGAHDNLKLTITQEGNKFTVKESSNVRNIDVVFELGVDFAYSAFDGTELTGTWTMEGNKLVGKFKRVDNGKELIAVREISGNELIQTYTYEGVEAKRIFKKE | 0.285 | 1.566 | 0.864 | 1.082 | 2.264 | 1.223 | 0.661 |
| 38I 74F 72A (protein, listed as Rattus norvegicus, PEPTIDE (1)...(131) wild-type rat intestinal fatty acid binding protein) AFDGTWKVDRNENYEKFMEKMGINVVKRKLGAHDNLKITITQEGNKFTVKESSNFRNIDVVFELGVDFAYSAAFGTELTGTWTMEGNKLVGKFKRVDNGKELIAVREISGNELIQTYTYEGVEAKRIFKKE | 0.503 | 1.395 | 0.787 | 1.343 | 2.112 | 1.162 | 0.764 |
| 18V 31F 73M 72A (protein, listed as Rattus norvegicus, PEPTIDE (1)...(131) wild-type rat intestinal fatty acid binding protein) AFDGTWKVDRNENYEKFVEKMGINVVKRKLFAHDNLKLTITQEGNKFTVKESSNFRNIDVVFELGVDFAYSAMDGTELTGTWTMEGNKLVGKFKRVDNGKELIAVREISGNELIQTYTYEGVEAKRIFKKE | 0.383 | 1.511 | 1.014 | 1.395 | 1.538 | 1.296 | 0.794 |
| 18I 31L 55L 72A (protein, listed as Rattus norvegicus, PEPTIDE (1)...(131) wild-type rat intestinal fatty acid binding protein) AFDGTWKVDRNENYEKFIEKMGINVVKRKLLAHDNLKLTITQEGNKFTVKESSNLRNIDVVFELGVDFAYSAADGTELTGTWTMEGNKLVGKFKRVDNGKELIAVREISGNELIQTYTYEGVEAKRIFKKE | 0.310 | 1.736 | 1.285 | 1.523 | 2.011 | 1.442 | 0.759 |
| 74E 72A 73F (protein, listed as Rattus norvegicus, PEPTIDE (1)...(131) wild-type rat intestinal fatty acid binding protein) AFDGTWKVDRNENYEKFMEKMGINVVKRKLGAHDNLKLTITQEGNKFTVKESSNFRNIDVVFELGVDFAYSAFEGTELTGTWTMEGNKLVGKFKRVDNGKELIAVREISGNELIQTYTYEGVEAKRIFKKE | 0.251 | 1.558 | 0.703 | 1.026 | 2.395 | 1.093 | 0.575 |
| 18V 31F 55L 72A (protein, listed as Rattus norvegicus, PEPTIDE (1)...(131) wild-type rat intestinal fatty acid binding protein) AFDGTWKVDRNENYEKFVEKMGINVVKRKLFAHDNLKLTITQEGNKFTVKESSNLRNIDVVFELGVDFAYSAADGTELTGTWTMEGNKLVGKFKRVDNGKELIAVREISGNELIQTYTYEGVEAKRIFKKE | 0.358 | 1.180 | 0.921 | 1.035 | 1.353 | 0.996 | 0.649 |
| 74T 72A 73F (protein, listed as Rattus norvegicus, PEPTIDE (1)...(131) wild-type rat intestinal fatty acid binding protein) AFDGTWKVDRNENYEKFMEKMGINVVKRKLGAHDNLKLTITQEGNKFTVKESSNFRNIDVVFELGVDFAYSAFTGTELTGTWTMEGNKLVGKFKRVDNGKELIAVREISGNELIQTYTYEGVEAKRIFKKE | 0.273 | 1.635 | 0.852 | 1.150 | 2.309 | 1.185 | 0.634 |
| 72S 73Q 74A (protein, listed as Rattus norvegicus, PEPTIDE (1)...(131) wild-type rat intestinal fatty acid binding protein) AFDGTWKVDRNENYEKFMEKMGINVVKRKLGAHDNLKLTITQEGNKFTVKESSNFRNIDVVFELGVDFAYSSQAGTELTGTWTMEGNKLVGKFKRVDNGKELIAVREISGNELIQTYTYEGVEAKRIFKKE | 1.311 | 2.077 | 2.290 | 1.896 | 2.293 | 2.140 | 1.875 |
| 73F 72A (protein, listed as Rattus norvegicus, PEPTIDE (1)...(131) wild-type rat intestinal fatty acid binding protein) AFDGTWKVDRNENYEKFMEKMGINVVKRKLGAHDNLKLTITQEGNKFTVKESSNFRNIDVVFELGVDFAYSAFDGTELTGTWTMEGNKLVGKFKRVDNGKELIAVREISGNELIQTYTYEGVEAKRIFKKE | 0.399 | 1.775 | 1.051 | 1.118 | 2.381 | 1.171 | 0.630 |
| 72S 73W 74G (protein, listed as Rattus norvegicus, PEPTIDE (1)...(131) wild-type rat intestinal fatty acid binding protein) AFDGTWKVDRNENYEKFMEKMGINVVKRKLGAHDNLKLTITQEGNKFTVKESSNFRNIDVVFELGVDFAYSSWGGTELTGTWTMEGNKLVGKFKRVDNGKELIAVREISGNELIQTYTYEGVEAKRIFKKE | 0.411 | 1.706 | 1.012 | 1.653 | 2.422 | 1.375 | 0.970 |
| 72G 73F 74N (protein, listed as Rattus norvegicus, PEPTIDE (1)...(131) wild-type rat intestinal fatty acid binding protein) AFDGTWKVDRNENYEKFMEKMGINVVKRKLGAHDNLKLTITQEGNKFTVKESSNFRNIDVVFELGVDFAYSGFNGTELTGTWTMEGNKLVGKFKRVDNGKELIAVREISGNELIQTYTYEGVEAKRIFKKE | −0.043 | 1.367 | 0.617 | 0.456 | 1.499 | 0.454 | −0.032 |
| 73P 72A 74F (protein, listed as Rattus norvegicus, PEPTIDE (1)...(131) wild-type rat intestinal fatty acid binding protein) AFDGTWKVDRNENYEKFMEKMGINVVKRKLGAHDNLKLTITQEGNKFTVKESSNFRNIDVVFELGVDFAYSAPFGTELTGTWTMEGNKLVGKFKRVDNGKELIAVREISGNELIQTYTYEGVEAKRIFKKE | 0.494 | 1.518 | 1.078 | 1.278 | 1.776 | 0.838 | 0.868 |
